{
  "source": "patent US4177261A",
  "about": "“Pharmaceutical composition and method of stimulating blood circulation and wound healing” (Thera Gesellschaft fur Patentverwertung mbH, priority 1977, dated 1979)",
  "origin": "cited, not measured here",
  "conditions": "intra-cuticular injection",
  "note": "No end group written: not given here.",
  "data": [
    {"substance": "kallidin: decapeptide; Bradykinin extended at the amino end by an additional lysine radical", "values": [
      {"measurement": "Quantity causing vehement pain reactions", "result": "about 0.1 micrograms per 1 milliliter of solution"}
    ]},
    {"substance": "RPPGFSPFR [Brady kinin, (NH2) arginine-proline-proline-glycine-phenylalanine-serine-proline-phenylalanine-arginine (COOH)]", "values": [
      {"measurement": "Quantity causing vehement pain reactions", "result": "about 0.1 micrograms per 1 milliliter of solution"}
    ]}
  ]
}
